Experimental data published in EP4803549A1 (Leads Biolabs Inc., dated 2026).

T1: human BCMA-His protein (ACRO, Cat#: BCA-H522y) (human, UniProt Q02223 1-54)
T1 construct: Bought protein; also called Human BCMA protein; huBCMA-his
T1 sequence: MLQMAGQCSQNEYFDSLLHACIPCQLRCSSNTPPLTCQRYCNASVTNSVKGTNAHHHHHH

T2: human BCMA protein expressed on the cell surface (human, UniProt Q02223 1-184)
T2 construct: whole, on cells; also called CHO-K1-huBCMA; CHOK1-huBCMA
T2 sequence (looked up): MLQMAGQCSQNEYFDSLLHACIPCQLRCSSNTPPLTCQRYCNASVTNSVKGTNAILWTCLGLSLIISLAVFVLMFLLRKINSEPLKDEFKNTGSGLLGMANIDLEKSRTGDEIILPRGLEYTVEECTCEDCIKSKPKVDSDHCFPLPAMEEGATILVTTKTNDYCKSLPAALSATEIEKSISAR


What was measured:
[1] = biological target: T1, human BCMA-His protein (ACRO, Cat#: …); test: BLI (ForteBio Octet RED96e), antibody on AHC sensor, 100 nM human BCMA-His, 1:1 model
[2] = biological target: T2, human BCMA protein expressed on the …; test: flow cytometry on CHOK1-huBCMA cells
[3] = biological target: T3, human GPRC5D protein expressed on the cell surface (human, UniProt Q9NZD1 1-345); test: flow cytometry on 293T-huGPRC5D cells
T3 construct: NP_061124.1 (NCBI) and Q9NZD1 (UniProt) are printed; also called CHO-K1-huGPRC5D
T3 sequence (Q9NZD1 whole entry): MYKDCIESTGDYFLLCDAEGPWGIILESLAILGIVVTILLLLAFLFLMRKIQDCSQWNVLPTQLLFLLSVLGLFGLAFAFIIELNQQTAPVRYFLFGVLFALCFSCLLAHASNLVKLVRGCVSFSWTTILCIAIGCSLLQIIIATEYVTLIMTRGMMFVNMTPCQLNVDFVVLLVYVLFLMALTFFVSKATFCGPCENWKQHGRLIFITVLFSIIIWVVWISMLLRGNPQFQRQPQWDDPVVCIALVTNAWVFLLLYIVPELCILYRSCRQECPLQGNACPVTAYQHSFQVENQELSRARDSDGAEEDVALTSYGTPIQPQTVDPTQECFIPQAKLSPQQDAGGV

Binder | Kd [1] | koff [1] | kon [1] | binding result [2] | binding result [3]
269B094 (a fully human monoclonal antibody targeting BCMA) (antibody, V domains shown, also called control antibody; control sample) VH: DVQLVESGGGLVQPGGSLRLSCAASGRTFSSIVMGWFRQAPGKEREFVGAIMWNDGITYLQDSVKGRFTIFRDNAKNTVYLQMNSLKLEDTAVYYCAASKGRYSEYEYWGQGTQVTVSS | 1510 pM | 0.00155 s⁻¹ | 1e+06 M⁻¹ s⁻¹ | – | –
BH56-IgG (antibody, V domains shown, also called anti-human BCMA chimeric antibody) VH: EVQVVESGGGLVQAGESLTLSCAASGFTFAPSAMSWARQPPGKEVEWVSGIYGDGRTTYADSVKGRFTISRDNAKKTVTLQMNNLEPEDSGNYICVVGIRLLSESWAQALRGQGTQVTVSS | < 1 pM | < 1e-07 s⁻¹ | 1e+06 M⁻¹ s⁻¹ | – | –
2xhuBH56-3-CD3ScFv (bispecific antibody, HC1 carries two huBH56-3 VHHs in tandem (GGGGS linker) on Fc hole; HC2 is CD3ScFv-knob; also called anti-CD3/BCMA bispecific antibody; diabody) heavy 1: EVQVVESGGGLIQPGGSLRLSCAASGFTFAPSAMSWARQPPGKEVEWVSGIYGDGRTTYADSVKGRFTISRDNSKNTVYLQMNSLRAEDTAVYYCVVGIRLLSESWAQALRGQGTQVTVSSGGGGSEVQVVESGGGLIQPGGSLRLSCAASGFTFAPSAMSWARQPPGKEVEWVSGIYGDGRTTYADSVKGRFTISRDNSKNTVYLQMNSLRAEDTAVYYCVVGIRLLSESWAQALRGQGTQVTVSSEPKSSDKTHTCPPCPAPEAAGGPSVFLFPPKPKDTLMISRTPEVTCVVVAVSHEDPEVKFNWYVDGVEVHNAKTKPREEQYNSTYRVVSVLTVLHQDWLNGKEYKCKVSNKALAAPIEKTISKAKGQPREPQVCTLPPSRDELTKNQVSLSCAVKGFYPSDIAVEWESNGQPENNYKTTPPVLDSDGSFFLVSKLTVDKSRWQQGNVFSCSVMHEALHNHYTQKSLSLSPGK heavy 2: not shown | – | – | – | binds | –
humanized anti-GPRC5D VHH-Fc antibody 8H5 (antibody, human IgG1, V domains shown, also called hu8H5; humanized anti-GPRC5D VHH 8H5-Fc) VH: EVQLLESGGGLVQPGGSLRLSCAASGIFLSASVMSWYRQAPGKQRELVASMLNSNTNYADSVKGRFTISRDNSKNTMYLQMNSLRAEDTAVYYCNAERSGVYWGQGTQVTVSS | – | – | – | – | binds
huHA68-4-IgG (antibody, V domains shown, Humanized VHH-Fc heavy-chain antibody) VH: EVQLVETGGGLIQPGGSLRLSCAASGFTFSPSAMSWARQAPGKGLEWVSGIYGDGKAEYADSVKGRFTISRDNSKNTVYLQMNSLRAEDTAVYSCAVGIRPTDAPWAASLRGQGTLVTVSS | < 1 pM | < 1e-07 s⁻¹ | 1e+06 M⁻¹ s⁻¹ | – | –
HA68-IgG (antibody, V domains shown, also called anti-human BCMA chimeric antibody) VH: QVQLVETGGGLVQPGGSLRLSCAASGFTFSPSAMNWARQAPGKGLEWVAGIYGDGKAEYADSVKGRFTISRDNAKNMVYLQMVNLRPEDTAVYSCAVGIRPTDAPWAASLRGQGTQVTVSS | < 1 pM | < 1e-07 s⁻¹ | 1e+06 M⁻¹ s⁻¹ | – | –
huHA68-3-IgG (antibody, V domains shown, Humanized VHH-Fc heavy-chain antibody) VH: EVQLVETGGGLIQPGGSLRLSCAASGFTFSPSAMSWARQAPGKGLEWVSGIYGDGKAEYADSVKGRFTISRDNSKNTVYLQMNSLRAEDTAVYYCAVGIRPTDAPWAASLRGQGTLVTVSS | < 1 pM | < 1e-07 s⁻¹ | 1e+06 M⁻¹ s⁻¹ | – | –
2xhuHA68-4-CD3ScFv (bispecific antibody, HC1 carries two huHA68-4 VHHs in tandem (GGGGS linker) on Fc hole; HC2 is CD3ScFv-knob; also called anti-CD3/BCMA bispecific antibody; diabody) heavy 1: EVQLVETGGGLIQPGGSLRLSCAASGFTFSPSAMSWARQAPGKGLEWVSGIYGDGKAEYADSVKGRFTISRDNSKNTVYLQMNSLRAEDTAVYSCAVGIRPTDAPWAASLRGQGTLVTVSSGGGGSEVQLVETGGGLIQPGGSLRLSCAASGFTFSPSAMSWARQAPGKGLEWVSGIYGDGKAEYADSVKGRFTISRDNSKNTVYLQMNSLRAEDTAVYSCAVGIRPTDAPWAASLRGQGTLVTVSSEPKSSDKTHTCPPCPAPEAAGGPSVFLFPPKPKDTLMISRTPEVTCVVVAVSHEDPEVKFNWYVDGVEVHNAKTKPREEQYNSTYRVVSVLTVLHQDWLNGKEYKCKVSNKALAAPIEKTISKAKGQPREPQVCTLPPSRDELTKNQVSLSCAVKGFYPSDIAVEWESNGQPENNYKTTPPVLDSDGSFFLVSKLTVDKSRWQQGNVFSCSVMHEALHNHYTQKSLSLSPGK heavy 2: not shown | – | – | – | binds | –
huBH56-3-IgG (antibody, V domains shown, Humanized VHH-Fc heavy-chain antibody; Fc with L234A, L235A, D265A, P329A) VH: EVQVVESGGGLIQPGGSLRLSCAASGFTFAPSAMSWARQPPGKEVEWVSGIYGDGRTTYADSVKGRFTISRDNSKNTVYLQMNSLRAEDTAVYYCVVGIRLLSESWAQALRGQGTQVTVSS | < 1 pM | < 1e-07 s⁻¹ | 1e+06 M⁻¹ s⁻¹ | – | –
huBH56-4-IgG (antibody, V domains shown, Humanized VHH-Fc heavy-chain antibody) VH: EVQLVESGGGLIQPGGSLRLSCAASGFTFAPSAMSWARQPPGKEVEWVSGIYGDGRTYYADSVKGRFTISRDNSKNTVYLQMNSLRAEDTAVYYCVVGIRLLSESWAQALRGQGTQVTVSS | < 1 pM | < 1e-07 s⁻¹ | 1e+06 M⁻¹ s⁻¹ | – | –
huBH56-6-IgG (antibody, V domains shown, Humanized VHH-Fc heavy-chain antibody) VH: EVQLVESGGGLIQPGGSLRLSCAASGFTFAPSAMSWARQPPGKGLEWVSGIYGDGRTYYADSVKGRFTISRDNSKNTVYLQMNSLRAEDTAVYYCVVGIRLLSESWAQALRGQGTQVTVSS | < 1 pM | < 1e-07 s⁻¹ | 979000 M⁻¹ s⁻¹ | – | –
huBH56-5-IgG (antibody, V domains shown, Humanized VHH-Fc heavy-chain antibody) VH: EVQVVESGGGLIQPGGSLRLSCAASGFTFAPSAMSWARQPPGKEVEWVSGIYGDGRTTYADSVKGRFTISRDNSKNTVYLQMNSLRAEDTAVYICVVGIRLLSESWAQALRGQGTQVTVSS | < 1 pM | < 1e-07 s⁻¹ | 1e+06 M⁻¹ s⁻¹ | – | –
huHA68-4-CD3ScFv (bispecific antibody, HC1 huHA68-4-hole; HC2 CD3ScFv-knob; also called anti-CD3/BCMA bispecific antibody; diabody) heavy 1: EVQLVETGGGLIQPGGSLRLSCAASGFTFSPSAMSWARQAPGKGLEWVSGIYGDGKAEYADSVKGRFTISRDNSKNTVYLQMNSLRAEDTAVYSCAVGIRPTDAPWAASLRGQGTLVTVSSEPKSSDKTHTCPPCPAPEAAGGPSVFLFPPKPKDTLMISRTPEVTCVVVAVSHEDPEVKFNWYVDGVEVHNAKTKPREEQYNSTYRVVSVLTVLHQDWLNGKEYKCKVSNKALAAPIEKTISKAKGQPREPQVCTLPPSRDELTKNQVSLSCAVKGFYPSDIAVEWESNGQPENNYKTTPPVLDSDGSFFLVSKLTVDKSRWQQGNVFSCSVMHEALHNHYTQKSLSLSPGK heavy 2: not shown | – | – | – | binds | –
huBH56-3-CD3ScFv (bispecific antibody, HC1 huBH56-3-hole (VHH, EPKSS, Fc hole); HC2 CD3ScFv-knob (CD3 VH, linker, CD3 VL, EPKSS, Fc knob); also called anti-CD3/BCMA bispecific antibody; diabody) heavy 1: EVQVVESGGGLIQPGGSLRLSCAASGFTFAPSAMSWARQPPGKEVEWVSGIYGDGRTTYADSVKGRFTISRDNSKNTVYLQMNSLRAEDTAVYYCVVGIRLLSESWAQALRGQGTQVTVSSEPKSSDKTHTCPPCPAPEAAGGPSVFLFPPKPKDTLMISRTPEVTCVVVAVSHEDPEVKFNWYVDGVEVHNAKTKPREEQYNSTYRVVSVLTVLHQDWLNGKEYKCKVSNKALAAPIEKTISKAKGQPREPQVCTLPPSRDELTKNQVSLSCAVKGFYPSDIAVEWESNGQPENNYKTTPPVLDSDGSFFLVSKLTVDKSRWQQGNVFSCSVMHEALHNHYTQKSLSLSPGK heavy 2: not shown | – | – | – | binds | –
